Data on eight molecules can be found in patent publication US20260297165 (published 2026).

As a reminder, the Kd is a measure of binding affinity in units of concentration.

To fix the notation:
B1: sCD59 (His)10 wild-type, commercial (protein)
chain: LQCYNCPNPTADCKTAVNCSSDFDACLITKAGLQVYNKCWKFEHCNFNDVTTRLRENELTYYCCKKDLCNFNEQLEN
B2: Vector KRE sCD59-6xHis wild-type (protein)
chain: MGIQGGSVLFGLLLVLAVFCHSGHSLQCYNCPNPTADCKTAVNCSSDFDACLITKAGLQVYNKCWKFEHCNFNDVTTRLRENELTYYCCKKDLCNFNEQLENHHHHHH
B3: Vector KRM vsCD59 K38R-6xHis (protein)
chain: MGIQGGSVLFGLLLVLAVFCHSGHSLQCYNCPNPTADCKTAVNCSSDFDACLITKAGLQVYNRCWKFEHCNFNDVTTRLRENELTYYCCKKDLCNFNEQLENHHHHHH
B4: Vector MTA sCD59 S20G-6xHis (protein)
chain: MGIQGGSVLFGLLLVLAVFCHSGHSLQCYNCPNPTADCKTAVNCGSDFDACLITKAGLQVYNKCWKFEHCNFNDVTTRLRENELTYYCCKKDLCNFNEQLENHHHHHH
B5: Vector KRG vsCD59 N18Q-6xHis (protein)
chain: MGIQGGSVLFGLLLVLAVFCHSGHSLQCYNCPNPTADCKTAVQCSSDFDACLITKAGLQVYNKCWKFEHCNFNDVTTRLRENELTYYCCKKDLCNFNEQLENHHHHHH
B6: Vector MTE sCD59 S20G,T51G-6xHis (protein)
chain: MGIQGGSVLFGLLLVLAVFCHSGHSLQCYNCPNPTADCKTAVNCGSDFDACLITKAGLQVYNKCWKFEHCNFNDVGTRLRENELTYYCCKKDLCNFNEQLENHHHHHH
B7: Vector MTC sCD59 T51G-6xHis (protein)
chain: MGIQGGSVLFGLLLVLAVFCHSGHSLQCYNCPNPTADCKTAVNCSSDFDACLITKAGLQVYNKCWKFEHCNFNDVGTRLRENELTYYCCKKDLCNFNEQLENHHHHHH
B8: sCD59 wild-type, in-house purified (protein)
chain: MGIQGGSVLFGLLLVLAVFCHSGHSLQCYNCPNPTADCKTAVNCSSDFDACLITKAGLQVYNKCWKFEHCNFNDVTTRLRENELTYYCCKKDLCNFNEQLEN

The target of the test is C9 (human, UniProt P02748). Kind of test: other (MSD ECL).
Chain of C9 (P02748 22-559): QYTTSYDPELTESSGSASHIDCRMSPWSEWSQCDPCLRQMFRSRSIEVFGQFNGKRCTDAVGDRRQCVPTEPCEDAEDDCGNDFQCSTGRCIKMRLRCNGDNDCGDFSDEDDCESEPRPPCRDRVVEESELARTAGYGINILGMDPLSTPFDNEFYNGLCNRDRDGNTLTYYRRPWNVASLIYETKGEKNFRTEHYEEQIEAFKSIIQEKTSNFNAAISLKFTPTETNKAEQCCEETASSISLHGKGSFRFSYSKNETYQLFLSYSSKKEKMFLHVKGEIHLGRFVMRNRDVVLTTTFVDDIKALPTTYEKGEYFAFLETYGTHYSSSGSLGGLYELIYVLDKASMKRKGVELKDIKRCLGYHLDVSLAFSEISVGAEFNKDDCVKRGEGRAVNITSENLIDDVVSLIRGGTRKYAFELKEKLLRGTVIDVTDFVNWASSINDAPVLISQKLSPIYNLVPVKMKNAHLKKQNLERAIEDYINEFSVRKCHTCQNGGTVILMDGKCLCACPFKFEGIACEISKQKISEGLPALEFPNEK
As for B1, the Kd came out at 33.1 nM.

Take B2: the affinity, expressed as Kd, was 34.3 nM.

Take B3: the Kd came out at 39 nM.

Regarding B4, the affinity, expressed as Kd, was 46.1 nM.

B5: binding was put at a Kd of 16 nM.

B6 yielded a Kd of 28.9 nM. Compared with the last molecule, the Kd is about 1.8-fold higher.

The molecule B7 had a Kd of 23.7 nM.

The molecule B8 displayed a Kd of 38.6 nM.
